From patent US20250361297A1 (ADAPTAM THERAPEUTICS S L, published 2025)
Numbering of substitutions follows the chain as printed. Numbers in names are those of the source.

T1: human Siglec-15, full length, expressed on cells (human, UniProt Q6ZMC9 20-328)
T1 construct: also called hS15; MOLM-13 Siglec-15 expressing cells
T1 sequence: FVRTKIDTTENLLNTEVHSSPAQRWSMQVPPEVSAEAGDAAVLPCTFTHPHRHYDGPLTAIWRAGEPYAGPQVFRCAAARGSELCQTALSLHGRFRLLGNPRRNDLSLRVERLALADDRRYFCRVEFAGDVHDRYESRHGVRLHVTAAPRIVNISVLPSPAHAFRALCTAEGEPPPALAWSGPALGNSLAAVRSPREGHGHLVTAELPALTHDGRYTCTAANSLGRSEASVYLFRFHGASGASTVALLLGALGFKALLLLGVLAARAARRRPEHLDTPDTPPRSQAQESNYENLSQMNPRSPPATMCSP

T2: recombinant Siglec-15 (bispecific antibody affinity assay) (Homo sapiens (Human), UniProt Q6ZMC9 20-263, limits assumed)
T2 sequence: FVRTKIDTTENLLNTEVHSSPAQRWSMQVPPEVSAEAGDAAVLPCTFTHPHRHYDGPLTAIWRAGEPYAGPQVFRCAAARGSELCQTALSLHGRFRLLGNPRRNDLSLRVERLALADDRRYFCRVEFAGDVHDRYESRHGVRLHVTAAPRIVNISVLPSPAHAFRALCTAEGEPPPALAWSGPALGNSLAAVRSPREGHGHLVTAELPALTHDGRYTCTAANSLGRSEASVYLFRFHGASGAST

T3: mouse Siglec-15, full length, expressed on HEK293T cells (mouse)
T3 construct: also called mS15; HEK293T cells expressing mouse Siglec-15
T3 chain: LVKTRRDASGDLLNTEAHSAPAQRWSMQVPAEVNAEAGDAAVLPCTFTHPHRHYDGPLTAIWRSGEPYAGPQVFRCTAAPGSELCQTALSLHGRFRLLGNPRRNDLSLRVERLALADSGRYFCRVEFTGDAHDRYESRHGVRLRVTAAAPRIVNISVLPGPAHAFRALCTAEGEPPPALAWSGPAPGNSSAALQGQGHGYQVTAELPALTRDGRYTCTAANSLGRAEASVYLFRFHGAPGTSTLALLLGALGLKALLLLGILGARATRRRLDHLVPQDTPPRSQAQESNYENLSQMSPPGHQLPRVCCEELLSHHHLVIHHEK

T4: recombinant human Siglec-15-his protein (Bonopusbio) (human, UniProt Q6ZMC9 20-263)
T4 construct: Bought (CW37-50 ug in the ELISA; the SPR paragraph prints CW70-50 ug); whole entry named; also called recombinant human Siglec-15 protein
T4 sequence: T2 sequence

T5: truncated human Siglec-15 comprising only domain 2 (D2), expressed on HEK293T cells (human, UniProt Q6ZMC9 168-251, limits assumed)
T5 construct: also called domain 2-only human Siglec-15; Siglec-15 Domain 2 (D2) HEK293T cells
T5 sequence: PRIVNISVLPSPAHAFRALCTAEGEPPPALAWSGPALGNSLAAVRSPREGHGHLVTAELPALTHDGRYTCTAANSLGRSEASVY

B1: ZLA-1243-E01 (antibody, V domains shown)
VH: QVQLVQSGGGLVQPGRSLRLSCAASGFTFDDYAMHWVRQAPGKGLEWVSGISWNSGSIGYADSVKGRFTISRDNAKNSLYLQMNSLRAEDTALYYCAKGLWPSYDLDAFDIWGQGTMVTVSS
VL: QSALTQPASVSGSPGQSITLSCTGTSSDVGAYNFVSWYQQHPGTAPKLMIYEVSNRPSGVSDRFSGSKSGNTASLTISGLQAEDEADYYCSSYTSTIPPFVFGTGTKVTVL
notes: Fully human, from phage display
B2: ZLA-1212-E09 (antibody, V domains shown)
VH: QVQLVQSGGGVVQPGRSLRLSCAASGFTFSSYGMHWVRQAPGKGLEWVAVISYDGSNKYYADSVKGRFTISRDNSKNTLYLQMNSLRAEDTAVYYCAKDDSGYYDSSGYDYWGQGTLVTVSS
VL: QSVLTQPPSVSGAPGQRVTISCTGSSSNIGAGYDVHWYQQLPGTAPKLLIYGNSNRPSGVPDRFSGSKSGTSASLAITGLQAEDEADYYCQSYDSSLSGVVFGGGTKLTVL
notes: also called clone ZLA-1212-E09
B3: ZLA-1214-D08 (antibody, V domains shown)
VH: EVQLVQSGAEVKKPGASVKVSCKASGYTFTGYYMHWVRQAPGQGLEWMGRINPNSGGTNYAQKFQGRVTMTRDTSTSTAYMELSRLRSDDTAVYYCARVINDAFDMWGQGTMVTVSS
VL: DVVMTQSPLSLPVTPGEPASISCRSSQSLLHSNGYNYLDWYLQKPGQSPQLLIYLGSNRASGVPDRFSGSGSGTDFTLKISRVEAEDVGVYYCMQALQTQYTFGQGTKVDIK
notes: as for B1
B4: ZLA-1214-B07 (antibody, V domains shown)
VH: QVQLVQSGAEVKKPGSSVKVSCKASGGTFSSYAISWVRQAPGQGLEWMGGIIPIFGTANYAQKFQGRVTITADESTSTAYMELSSLRSEDTAVYYCARDGGRDGYNPKKILEFDYWGQGTLVTVSS
VL: not shown
notes: as for B1
B5: ZLA-1212-B05 (antibody, V domains shown)
VH: QVQLVQSGGGVVQPGRSLRLSCAASGFTFSSYAMHWVRQAPGKGLEWVAVISYDGSNKYYADSVKGRFTISRDNSKNTLYLQMNSLRAEDTAVYYCAREGGSYYGYFDYWGQGTLVTVSS
VL: QSVLTQPPSVSVAPGKTARITCGGNNIGSKSVHWYQQKPGQAPVLVIYDDSDRPSGIPERFSGSNSGNTATLTISRVEAGDEADYYCQVWDSSSDHRVFGGGTKLTVL
notes: Fully human, from phage display; also called clone ZLA-1212-B05
B6: ZLA-1243-A01 (antibody, V domains shown)
VH: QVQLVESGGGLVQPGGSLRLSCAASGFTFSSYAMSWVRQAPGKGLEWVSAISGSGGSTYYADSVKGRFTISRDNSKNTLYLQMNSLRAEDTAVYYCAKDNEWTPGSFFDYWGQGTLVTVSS
VL: QSALTQPASVSGSPGQSITISCTGTSSDVGGYNYVSWYQQHPGKAPKLMIYDVSNRPSGVSNRFSGSKSGNTASLTISGLQAEDEADYYCSSYTSSSTRVFGGGTKVTVL
notes: Fully human, from phage display; tested as full-length human IgG1 with silenced Fc (E233P, L234V, L235A, G236 deletion, D265G, A327Q, A330S, C-terminus lysine deletion)
B7: BsAb-2 (bispecific antibody, human IgG1, kappa, L234A L235A)
light 1: not shown
heavy 1: QVQLQQSGPELVKPGASVKISCKASGYAFSSSWMNWVKQRPGKGLEWIGRIYPGHGETNYNGKFKDKATVTADKSSSTTYMQLSSLTSEDSAVYFCARVDNSDPYYFDYWGQGTTLTVSSASTKGPSVFPLAPSSKSTSGGTAALGCLVKDYFPEPVTVSWNSGALTSGVHTFPAVLQSSGLYSLSSVVTVPSSSLGTQTYICNVNHKPSNTKVDKKVEPKSCDKTHTCPPCPAPEAAGGPSVFLFPPKPKDTLMISRTPEVTCVVVDVSHEDPEVKFNWYVDGVEVHNAKTKPREEQYNSTYRVVSVLTVLHQDWLNGKEYKCKVSNKALPAPIEKTISKAKGQPREPQVCTLPPSRDELTKNQVSLSCAVKGFYPSDIAVEWESNGQPENNYKTTPPVLDSDGSFFLVSKLTVDKSRWQQGNVFSCSVMHEALHNHYTQKSLSLSPGK
heavy 2: not shown
light 2: not shown
notes: 2 + 1 format; also called anti-Siglec-15/CD3 bispecific antibody, Format-2: KIH & scFv (2 + 1)
B8: S15B1-VH3 + VL2 (antibody, V domains shown)
VH: QVQLVQSGAEVKKPGASVKVSCKASGYAFSSSWMNWVKQAPGQGLEWIGRIYPGHGETNYNGKFKDRATMTADTSTSTVYMELSSLRSEDTAVYFCARVDNSDPYYFDYWGQGTTVTVSS
VL: DIVLTQSPASLAVSPGQRATITCRASKSVSTSGYSYMHWYQQKPGQPPKLLIYLASNLESGVPARFSGSGSGTDFTLTINPVEAEDTATYYCQHGRELPFTFGGGTKLEIK
notes: Humanized S15B1; also called humanized S15B1 VH3+VL2; huS15B1
B9: S15B1-VH3 + VL1 (antibody, V domains shown)
VH: B8 VH
VL: B8 VL with T89N
notes: Humanized S15B1; also called humanized S15B1 VH3+VL1; huS15B1
B10: S15B1-VH2 + VL2 (antibody, V domains shown)
VH: B8 VH with K38R, A68V
VL: B8 VL
notes: Humanized S15B1; also called humanized S15B1 VH2+VL2; huS15B1
B11: S15B1-VH2 + VL1 (antibody, V domains shown)
VH: B8 VH with K38R, A68V
VL: B8 VL with T89N
notes: Humanized S15B1; also called humanized S15B1 VH2+VL1; huS15B1
B12: S15B1-VH1 + VL1 (antibody, V domains shown)
VH: B8 VH with K38R, A68V
VL: B8 VL with T89N
notes: Humanized S15B1; also called humanized S15B1 VH1+VL1; huS15B1
B13: S15B1-VH4 + VL2 (antibody, V domains shown)
VH: B8 VH with T74K
VL: B8 VL
notes: Humanized S15B1; also called humanized S15B1 VH4+VL2; huS15B1
B14: S15B1-VH1 + VL2 (antibody, V domains shown)
VH: B8 VH with K38R, A68V
VL: B8 VL
notes: Humanized S15B1; also called humanized S15B1 VH1+VL2; huS15B1
B15: S15B1-VH4 + VL1 (antibody, V domains shown)
VH: B8 VH with T74K
VL: B8 VL with T89N
notes: Humanized S15B1; also called humanized S15B1 VH4+VL1; huS15B1
B16: 5G12 (antibody, V domains shown)
VH: QVQLQQPGAELVKPGASVKMSCKASGYTFTSYWITWVIQRPGQGLEWIGDIYCGSDTMHYNEKFKNKATLTVDTSSSTAYMQLSSLTSEDSAVYYCARWWDYGSSYDYFDYWGQGTTLTVSS
VL: DIKMTQSPSSMYASLGERVTITCKASQDINSYLSWFQQKPGKSPKTLIYRANRLVDGVPSRFSGSGSGQDYSLTISSLEYEDMGIYYCLQYDEFPYTFGGGTKLEIKR
B17: A2A5C7E8-3 (antibody, V domains shown)
VH: EVQLVQSGAEVKKPGESLRISCKGSGYSFTTYWISWVRQMPGKGLEWMGLIDPSDSYTNYSPSFKGHVTISTDKSISTAYLQWSSLKASDTAMYYCARGGYYGSEEDYWGQGTLVTVSS
VL: EIVLTQSPGTLSLSPGERATLSCRASQSVSSSRLAWFQQKSGQAPRLLIFDASSRATGIPDRFSGSGSGTDFTLTISRLEPEDFAVYYCQQYGSSPRTFGQGTKVEFKR

molecular target: T1, human Siglec-15, full length, expressed …; experiment: IgG1 titration, flow cytometry on MOLM-13 human Siglec-15 cells
Experimental: Complementary to the ELISA, flow cytometry assays provided insight into the binding behavior of the antibodies on the cell surface. Here, titration of the antibodies began at the same concentration of 10 μg/ml, using MOLM-13 human Siglec-15 and MOLM-13 wild-type cells as a negative control, with detection performed using an anti-human Fc secondary antibody (FIG. 8B).
In the flow cytometry assay, MOLM-13 cells expressing human Siglec-15 and MOLM-13 wild-type cells (negative control) were incubated with titrated antibodies starting at 10 μg/ml. After incubation, cells were washed and incubated with an anti-human Fc-specific secondary antibody conjugated with a fluorescent marker. Flow cytometric analysis was conducted, and fluorescence intensity was used to calculate EC50 values, providing a quantitative assessment of the antibodies' cell surface binding efficacy.

Row | Binder | EC50
1 | B1 | 0.174 µg/mL
2 | B2 | 0.178 µg/mL
3 | B3 | 0.106 µg/mL
4 | B4 | 0.133 µg/mL
5 | B5 | 0.215 µg/mL
6 | B6 | 0.181 µg/mL

molecular target: recombinant CD3 (UniProt P07766 23-126; P09693 23-116); experiment: antibody as ligand, 'Human CD3 epsilon&CD3 gamma' as analyte; legend paragraph 116 says BLI, methods paragraph 422 say Biacore SPR, table in RU
Sequence (P07766 23-126, form in doubt, chain 1 of 2): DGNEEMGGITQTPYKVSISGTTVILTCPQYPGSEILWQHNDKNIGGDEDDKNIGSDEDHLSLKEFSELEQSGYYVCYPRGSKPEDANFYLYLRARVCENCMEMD
Sequence (P09693 23-116, form in doubt, chain 2 of 2): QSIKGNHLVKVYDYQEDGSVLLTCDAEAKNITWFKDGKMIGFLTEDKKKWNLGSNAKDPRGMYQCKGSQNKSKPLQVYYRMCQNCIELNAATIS

Row | Binder | Kd | koff | kon
7 | B7 | 137 nM | 0.00739 s⁻¹ | 53800 M⁻¹ s⁻¹

molecular target: T2, recombinant Siglec-15 (bispecific …); experiment: antibody as ligand, human Siglec15 as analyte; legend paragraph 114 says BLI, methods paragraph 422 say Biacore SPR, table in RU

Row | Binder | Kd | koff | kon
8 | B7 | 0.17 nM | 0.000133 s⁻¹ | 786000 M⁻¹ s⁻¹

Molecular target: T3, mouse Siglec-15, full length, expressed …
Experiment: IgG1 titration, flow cytometry on HEK293T cells expressing mouse Siglec-15
Experimental: The antibodies were titrated against HEK293T cells expressing mouse Siglec-15 or HEK293T cells expressing a truncated human Siglec-15 consisting solely of domain 2 (FIG. 9).
For the ELISA, antigens were immobilized on high-binding plates, and the full-length IgG1 anti-Siglec-15 antibodies were titrated beginning at a concentration of 10 μg/ml. After washing, an anti-human IgG Fab-specific HRP-conjugated secondary antibody was applied for detection. Palivizumab was included as the negative control. Optical densities were measured to generate binding curves from which EC50 values were derived. In the flow cytometry assay, MOLM-13 cells expressing human Siglec-15 and MOLM-13 wild-type cells (negative control) were incubated with titrated antibodies starting at 10 μg/ml. After incubation, cells were washed and incubated with an anti-human Fc-specific secondary antibody conjugated with a fluorescent marker. Flow cytometric analysis was conducted, and fluorescence intensity was used to calculate EC50 values, providing a quantitative assessment of the antibodies' cell surface binding efficacy. HEK293T cells were genetically engineered to express full-length mouse Siglec-15 and a truncated version of human Siglec-15 encompassing only domain 2. Antibodies were titrated starting at a concentration of 10 μg/ml and detected with an anti-human Fc-specific secondary antibody to detect bound primary antibodies. […] Results were analyzed and ranked based on the EC50 values.

Row | Binder | EC50
9 | B1 | 0.0849 µg/mL
10 | B2 | 0.191 µg/mL
11 | B3 | 0.103 µg/mL
12 | B4 | 0.102 µg/mL
13 | B5 | 0.168 µg/mL
14 | B6 | 0.0753 µg/mL

molecular target: T1, human Siglec-15, full length, expressed …; experiment: flow cytometry, HEK293T cells expressing human Siglec-15, anti-human IgG-PE, MFI
Experimental: Flow cytometry was used to quantify the antibodies bound to the HEK293T cells.
Then, anti-Siglec-15 mAbs were added to the cell suspension at the desired concentration, starting at 10 μg/mL and performing 1/3 dilutions. Cells were incubated with the indicated antibodies for 30-60 minutes at 4° C. in the dark to prevent degradation of the fluorescent signal. After the primary antibody incubation, cells were washed twice with PBS or flow cytometry buffer by centrifuging at 300-500× g for 5 minutes and the pellet resuspended in fresh buffer. The following antibody was added: anti-human IgG-PE at a 1:500 dilution. Cells were incubated with the secondary antibody for 30 minutes at 4° C. in the dark. Finally, cells were washed twice with PBS or flow cytometry buffer to remove any excess secondary antibody and acquired in a flow cytometer.

Row | Binder | EC50 (read off the curve)
15 | B8 | ~1 nM
16 | B9 | ~1 nM
17 | B10 | ~1 nM

molecular target: T4, recombinant human Siglec-15-his protein …; experiment: SPR (Biacore T200), antibody on CM5 chip, Siglec-15-his as analyte
Experimental: Binding affinity determination of anti-Siglec-15 monoclonal antibodies using BIACORE surface plasmon resonance: The purified anti-Siglec-15 monoclonal antibodies (mAbs) were characterized for binding affinity and binding kinetics by Biacore T200 system (GE healthcare, Pittsburgh, PA, USA). […] Un-reacted moieties on the biosensor surface were blocked with ethanolamine. Then, serially diluted recombinant human Siglec-15-his protein (Bonopusbio, CW70-50 ug), 2-fold serial dilution in HBS-EP buffer starting at 80 nM, were respectively flown onto the chip at a flow rate of 30 pL/min. The antigen-antibody association kinetics was followed for 2 minutes, and the dissociation kinetics was followed for 10 minutes. The association and dissociation curves were fit to a 1:1 Langmuir binding model using BIAcore evaluation software. The dissociation rate (kd) and association constant (ka) rate constants were obtained using Evaluation Software. The equilibrium dissociation constant (KD) was calculated from the ratio of kd over ka.

Row | Binder | Kd | koff | kon
18 | B8 | 0.0653 nM | 0.000293 s⁻¹ | 4.49e+06 M⁻¹ s⁻¹
19 | B11 | 0.125 nM | 0.000473 s⁻¹ | 3.8e+06 M⁻¹ s⁻¹
20 | B12 | 0.136 nM | 0.000455 s⁻¹ | 3.35e+06 M⁻¹ s⁻¹
21 | B9 | 0.069 nM | 0.000257 s⁻¹ | 3.73e+06 M⁻¹ s⁻¹
22 | B10 | 0.0946 nM | 0.000326 s⁻¹ | 3.44e+06 M⁻¹ s⁻¹
23 | B13 | 0.138 nM | 0.000234 s⁻¹ | 1.69e+06 M⁻¹ s⁻¹
24 | B14 | 0.159 nM | 0.000563 s⁻¹ | 3.54e+06 M⁻¹ s⁻¹
25 | B15 | 0.0938 nM | 0.000385 s⁻¹ | 4.1e+06 M⁻¹ s⁻¹

molecular target: T5, truncated human Siglec-15 comprising …; experiment: flow cytometry, HEK293T cells expressing only domain 2 of human Siglec-15, fold change of Siglec15 gMFI relative to 2ry control
Experimental: (§1) Assessment of the binding of anti-Siglec-15 antibodies to HEK293T cells expressing full length human Siglec-15, or mutant human Siglec-15 (R143A) or the domain 2 of human Siglec-15 by Flow cytometry: Siglec-15+, Siglec-15+R143A, and Siglec-15 Domain 2 (D2) HEK293T cells were detached using tryple and washed once with PBS, resuspended in 1× flow cytometry buffer (PBS with 1% FBS) at approximately 1-2×10\hat{ }6 cells/mL. Then, anti-Siglec-15 mAbs were added to the cell suspension at the desired concentration, starting at 10 μg/mL and performing 1/3 dilutions. Cells were incubated with the indicated antibodies for 30-60 minutes at 4° C. in the dark to prevent degradation of the fluorescent signal. After the primary antibody incubation, cells were washed twice with PBS or flow cytometry buffer by centrifuging at 300-500× g for 5 minutes and the pellet resuspended in fresh buffer. The following antibody was added: anti-human IgG-PE at a 1:500 dilution. Cells were incubated with the secondary antibody for 30 minutes at 4° C. in the dark. Finally, cells were washed twice with PBS or flow cytometry buffer to remove any excess secondary antibody and acquired in a flow cytometer.

Row | Binder | binding result
26 | B1 | no binding
27 | B2 | no binding
28 | B3 | no binding
29 | B4 | no binding
30 | B5 | no binding
31 | B6 | no binding

molecular target: T1, human Siglec-15, full length, expressed …; experiment: flow cytometry, HEK293T cells expressing human Siglec-15, anti-human IgG-PE, gMFI
Experimental: as §1

Row | Binder | EC50 (read off the curve)
32 | B16 | ~1 nM
33 | B17 | ~0.5 nM
34 | B6 | ~1 nM
